Measured values taken from PMC3530388 (Journal of the American Chemical Society, 2012).

Biological target: the molecule itself
Assay: AUC

B1: dihydroneopterin aldolase from Mycobacterium tuberculosis H37Rv (enzyme)
chain: MADRIELRGLTVHGRHGVYDHERVAGQRFVIDVTVWIDLAEAANSDDLADTYDYVRLASRAAEIVAGPPRKLIETVGAEIADHVMDDQRVHAVEVAVHKPQAPIPQTFDDVAVVIRRSRRGGRGWVVPAGGAV
With B1 the “stoichiometry N” value was 4.
